Measured values: patent US20190077860A1 (EISAI R AND D MANAGEMENT, published 2019)

T1: human EphA10 extracellular region-SEAP-His protein (human, UniProt Q5JZY3 34-565)
T1 construct: extracellular domain; also called hEphA10-SEAP-His
T1 sequence (looked up): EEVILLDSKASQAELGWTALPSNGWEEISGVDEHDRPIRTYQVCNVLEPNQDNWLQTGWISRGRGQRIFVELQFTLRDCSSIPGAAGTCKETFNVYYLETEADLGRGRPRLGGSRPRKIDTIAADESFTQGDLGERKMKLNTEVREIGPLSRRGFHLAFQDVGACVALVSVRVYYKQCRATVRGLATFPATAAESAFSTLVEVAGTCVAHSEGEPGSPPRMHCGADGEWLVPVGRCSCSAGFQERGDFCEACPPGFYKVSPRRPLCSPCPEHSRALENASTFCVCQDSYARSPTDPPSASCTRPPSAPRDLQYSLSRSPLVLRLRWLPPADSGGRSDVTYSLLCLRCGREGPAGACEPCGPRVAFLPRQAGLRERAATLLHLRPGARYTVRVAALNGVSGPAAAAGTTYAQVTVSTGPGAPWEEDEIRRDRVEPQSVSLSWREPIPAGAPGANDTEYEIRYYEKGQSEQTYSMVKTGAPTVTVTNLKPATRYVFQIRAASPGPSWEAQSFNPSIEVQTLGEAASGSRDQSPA

T2: human EphA7 extracellular region-SEAP-His protein (human, UniProt Q15375 28-555)
T2 construct: extracellular domain; also called hEphA7-SEAP-His
T2 sequence (looked up): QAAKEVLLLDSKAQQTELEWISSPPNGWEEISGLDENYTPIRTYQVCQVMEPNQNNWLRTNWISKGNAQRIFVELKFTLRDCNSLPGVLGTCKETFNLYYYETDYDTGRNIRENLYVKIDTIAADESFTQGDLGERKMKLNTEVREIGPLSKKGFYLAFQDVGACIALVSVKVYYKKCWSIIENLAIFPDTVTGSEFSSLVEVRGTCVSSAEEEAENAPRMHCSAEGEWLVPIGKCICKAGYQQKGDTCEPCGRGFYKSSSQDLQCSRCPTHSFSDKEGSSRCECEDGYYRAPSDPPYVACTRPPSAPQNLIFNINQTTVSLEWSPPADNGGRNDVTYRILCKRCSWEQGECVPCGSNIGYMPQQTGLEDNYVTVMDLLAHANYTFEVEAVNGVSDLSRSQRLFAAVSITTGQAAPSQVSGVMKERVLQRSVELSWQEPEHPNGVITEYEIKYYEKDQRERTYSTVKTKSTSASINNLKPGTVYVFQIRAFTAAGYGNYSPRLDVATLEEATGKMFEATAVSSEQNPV

T3: human EphB6 extracellular region-SEAP-His protein (human, UniProt O15197 32-594)
T3 construct: extracellular domain; also called hEphB6-SEAP-His
T3 sequence (looked up): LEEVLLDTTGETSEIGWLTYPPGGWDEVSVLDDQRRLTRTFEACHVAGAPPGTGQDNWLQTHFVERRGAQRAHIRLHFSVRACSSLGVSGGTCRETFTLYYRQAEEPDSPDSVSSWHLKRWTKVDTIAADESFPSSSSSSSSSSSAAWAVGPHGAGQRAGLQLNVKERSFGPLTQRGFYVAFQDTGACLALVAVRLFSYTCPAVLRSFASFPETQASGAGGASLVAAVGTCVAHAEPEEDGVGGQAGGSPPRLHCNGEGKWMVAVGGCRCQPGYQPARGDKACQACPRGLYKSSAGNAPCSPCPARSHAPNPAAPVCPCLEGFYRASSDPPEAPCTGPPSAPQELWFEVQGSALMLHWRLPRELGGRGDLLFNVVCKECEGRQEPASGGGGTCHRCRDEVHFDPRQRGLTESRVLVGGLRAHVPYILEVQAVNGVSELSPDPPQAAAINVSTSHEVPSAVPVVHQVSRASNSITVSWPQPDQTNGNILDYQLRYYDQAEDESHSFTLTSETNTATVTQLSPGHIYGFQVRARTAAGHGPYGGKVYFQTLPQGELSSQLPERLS

T4: human EphA1 extracellular region-SEAP-His protein (human, UniProt P21709 26-547)
T4 construct: extracellular domain; also called hEphA1-SEAP-His
T4 sequence (looked up): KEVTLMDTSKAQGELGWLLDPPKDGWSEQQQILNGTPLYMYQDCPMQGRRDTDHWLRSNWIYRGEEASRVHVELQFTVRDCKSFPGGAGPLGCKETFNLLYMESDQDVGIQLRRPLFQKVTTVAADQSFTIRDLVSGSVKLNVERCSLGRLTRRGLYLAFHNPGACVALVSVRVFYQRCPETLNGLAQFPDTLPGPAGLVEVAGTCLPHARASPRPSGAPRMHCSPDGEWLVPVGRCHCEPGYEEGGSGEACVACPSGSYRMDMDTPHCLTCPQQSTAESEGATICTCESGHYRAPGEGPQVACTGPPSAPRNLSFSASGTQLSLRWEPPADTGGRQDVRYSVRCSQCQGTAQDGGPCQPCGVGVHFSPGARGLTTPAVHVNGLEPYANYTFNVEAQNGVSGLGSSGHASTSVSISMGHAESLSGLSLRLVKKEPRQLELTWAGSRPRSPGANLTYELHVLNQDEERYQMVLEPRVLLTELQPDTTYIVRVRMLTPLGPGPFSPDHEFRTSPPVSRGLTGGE


Assays:
Experiment in all cases: ELISA
[1] = molecular target: T1, human EphA10 extracellular …
[2] = molecular target: T2, human EphA7 extracellular …
[3] = molecular target: T3, human EphB6 extracellular …
SEAP-His = SEAP-His (UniProt P05187 23-511)
SEAP-His, sequence (P05187 23-511): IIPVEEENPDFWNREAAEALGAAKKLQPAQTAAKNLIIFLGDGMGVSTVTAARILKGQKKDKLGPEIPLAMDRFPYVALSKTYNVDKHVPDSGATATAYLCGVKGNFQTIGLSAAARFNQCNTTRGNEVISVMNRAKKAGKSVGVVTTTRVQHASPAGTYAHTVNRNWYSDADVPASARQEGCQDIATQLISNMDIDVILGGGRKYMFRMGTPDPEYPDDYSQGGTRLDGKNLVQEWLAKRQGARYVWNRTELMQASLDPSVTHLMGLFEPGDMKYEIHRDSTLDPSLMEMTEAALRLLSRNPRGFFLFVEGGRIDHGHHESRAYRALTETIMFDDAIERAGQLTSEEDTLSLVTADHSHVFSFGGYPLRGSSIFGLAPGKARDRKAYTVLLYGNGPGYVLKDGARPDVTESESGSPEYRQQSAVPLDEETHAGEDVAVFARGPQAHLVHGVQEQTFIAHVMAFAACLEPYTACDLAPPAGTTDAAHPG

[4] = molecular target: T4, human EphA1 extracellular …
[5] = molecular target: T5, human EphA5 extracellular region-SEAP-His protein (human, UniProt P54756 25-573)
T5 construct: extracellular domain; also called hEphA5-SEAP-His
T5 sequence (P54756 25-573): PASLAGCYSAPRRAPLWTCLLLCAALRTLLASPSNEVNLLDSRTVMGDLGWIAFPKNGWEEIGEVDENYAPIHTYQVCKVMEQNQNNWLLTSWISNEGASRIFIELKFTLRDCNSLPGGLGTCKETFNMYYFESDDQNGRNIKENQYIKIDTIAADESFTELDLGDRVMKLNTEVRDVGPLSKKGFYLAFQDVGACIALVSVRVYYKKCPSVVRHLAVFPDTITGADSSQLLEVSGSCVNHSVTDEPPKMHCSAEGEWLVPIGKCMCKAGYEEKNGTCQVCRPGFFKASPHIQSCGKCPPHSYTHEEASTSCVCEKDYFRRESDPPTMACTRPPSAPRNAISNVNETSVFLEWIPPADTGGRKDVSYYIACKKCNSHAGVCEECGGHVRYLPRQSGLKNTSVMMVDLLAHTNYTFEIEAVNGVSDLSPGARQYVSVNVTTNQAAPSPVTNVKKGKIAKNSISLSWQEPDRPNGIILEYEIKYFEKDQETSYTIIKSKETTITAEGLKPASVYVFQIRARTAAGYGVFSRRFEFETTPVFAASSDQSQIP

Binder	A450 as % of hEphA4-SEAP-His [1] [%]	A450 as % of hEphA4-SEAP-His [2] [%]	A450 as % of hEphA4-SEAP-His [3] [%]	A450 as % of hEphA4-SEAP-His (SEAP-His) [%]	A450 as % of hEphA4-SEAP-His [4] [%]	A450 as % of hEphA4-SEAP-His [5] [%]
humanized antibody No. 160 (antibody, human IgG2, human Ig kappa; also called L1-6/HK4) heavy: QIQLVQSGSELKKPGASVKVSCKASGYTFTDYSMHWVRQAPGQGLKWMGWINTETGEPTYADDFKGRFVFSLDTSVSTAYLQISSLKAEDTAVYYCARIPLYYYGSRYWYFDVWGQGTTVTVSSASTKGPSVFPLAPSSRSTSESTAALGCLVKDYFPEPVTVSWNSGALTSGVHTFPAVLQSSGLYSLSSVVTVPSSNFGTQTYTCNVDHKPSNTKVDKTVERKSCVECPPCPAPPAAAPSVFLFPPKPKDTLMISRTPEVTCVVVDVSHEDPEVQFNWYVDGVEVHNAKTKPREEQFNSTFRVVSVLTVVHQDWLNGKEYKCKVSNKGLPAPIEKTISKTKGQPREPQVYTLPPSREEMTKNQVSLTCLVKGFYPSDIAVEWESNGQPENNYKTTPPMLDSDGSFFLYSKLTVDKSRWQQGNVFSCSVMHEALHNHYTQKSLSLSPG light: DIQMTQSPSSLSASVGDRVTITCRASENIYRNLAWYQQKPGKAPQLLLYAATNLADGVPSRFSGSGSGTDYTLTISSLQPEDFATYYCQHFWGTPWTFGQGTKVEIKRTVAAPSVFIFPPSDEQLKSGTASVVCLLNNFYPREAKVQWKVDNALQSGNSQESVTEQDSKDSTYSLSSTLTLSKADYEKHKVYACEVTHQGLSSPVTKSFNRGEC	5	6.1	6.2	6.3	6.5	6.5
humanized antibody No. 134 (antibody, human IgG2, human Ig kappa; also called L2-4/HA2) heavy: QVQLVQSGSELKKPGASVKVSCKASGYTFTDYSMHWVRQAPGQGLKWMGWINTETGEPTYAQGFTGRFVFSLDTSVSTAYLQISSLKAEDTAVYYCARIPLYYYGSRYWYFDVWGQGTTVTVSSASTKGPSVFPLAPSSRSTSESTAALGCLVKDYFPEPVTVSWNSGALTSGVHTFPAVLQSSGLYSLSSVVTVPSSNFGTQTYTCNVDHKPSNTKVDKTVERKSCVECPPCPAPPAAAPSVFLFPPKPKDTLMISRTPEVTCVVVDVSHEDPEVQFNWYVDGVEVHNAKTKPREEQFNSTFRVVSVLTVVHQDWLNGKEYKCKVSNKGLPAPIEKTISKTKGQPREPQVYTLPPSREEMTKNQVSLTCLVKGFYPSDIAVEWESNGQPENNYKTTPPMLDSDGSFFLYSKLTVDKSRWQQGNVFSCSVMHEALHNHYTQKSLSLSPG light: EIVMTQSPATLSVSPGERATLSCRASENIYRNLAWYQQKPGQSPRLLIYAATNLADGIPARFSGSGSGTEYTLTISSLQSEDFAVYYCQHFWGTPWTFGQGTKVEIKRTVAAPSVFIFPPSDEQLKSGTASVVCLLNNFYPREAKVQWKVDNALQSGNSQESVTEQDSKDSTYSLSSTLTLSKADYEKHKVYACEVTHQGLSSPVTKSFNRGEC	5	5.1	5.2	5.1	5.1	5.2
humanized antibody No. 132 (antibody, human IgG2, human Ig kappa; also called L2-4/HA4) heavy: QIQLVQSGSELKKPGASVKVSCKASGYTFTDYSMHWVRQAPGQGLKWMGWINTETGEPTYAQGFTGRFVFSLDTSVSTAYLQISSLKAEDTAVYYCARIPLYYYGSRYWYFDVWGQGTTVTVSSASTKGPSVFPLAPSSRSTSESTAALGCLVKDYFPEPVTVSWNSGALTSGVHTFPAVLQSSGLYSLSSVVTVPSSNFGTQTYTCNVDHKPSNTKVDKTVERKSCVECPPCPAPPAAAPSVFLFPPKPKDTLMISRTPEVTCVVVDVSHEDPEVQFNWYVDGVEVHNAKTKPREEQFNSTFRVVSVLTVVHQDWLNGKEYKCKVSNKGLPAPIEKTISKTKGQPREPQVYTLPPSREEMTKNQVSLTCLVKGFYPSDIAVEWESNGQPENNYKTTPPMLDSDGSFFLYSKLTVDKSRWQQGNVFSCSVMHEALHNHYTQKSLSLSPG light: EIVMTQSPATLSVSPGERATLSCRASENIYRNLAWYQQKPGQSPRLLIYAATNLADGIPARFSGSGSGTEYTLTISSLQSEDFAVYYCQHFWGTPWTFGQGTKVEIKRTVAAPSVFIFPPSDEQLKSGTASVVCLLNNFYPREAKVQWKVDNALQSGNSQESVTEQDSKDSTYSLSSTLTLSKADYEKHKVYACEVTHQGLSSPVTKSFNRGEC	4.7	4.5	4.7	4.9	4.8	4.7
humanized antibody No. 133 (antibody, human IgG2, human Ig kappa; also called L2-4/HA1) heavy: QVQLVQSGSELKKPGASVKVSCKASGYTFTDYSMHWVRQAPGQGLEWMGWINTETGEPTYAQGFTGRFVFSLDTSVSTAYLQISSLKAEDTAVYYCARIPLYYYGSRYWYFDVWGQGTTVTVSSASTKGPSVFPLAPSSRSTSESTAALGCLVKDYFPEPVTVSWNSGALTSGVHTFPAVLQSSGLYSLSSVVTVPSSNFGTQTYTCNVDHKPSNTKVDKTVERKSCVECPPCPAPPAAAPSVFLFPPKPKDTLMISRTPEVTCVVVDVSHEDPEVQFNWYVDGVEVHNAKTKPREEQFNSTFRVVSVLTVVHQDWLNGKEYKCKVSNKGLPAPIEKTISKTKGQPREPQVYTLPPSREEMTKNQVSLTCLVKGFYPSDIAVEWESNGQPENNYKTTPPMLDSDGSFFLYSKLTVDKSRWQQGNVFSCSVMHEALHNHYTQKSLSLSPG light: EIVMTQSPATLSVSPGERATLSCRASENIYRNLAWYQQKPGQSPRLLIYAATNLADGIPARFSGSGSGTEYTLTISSLQSEDFAVYYCQHFWGTPWTFGQGTKVEIKRTVAAPSVFIFPPSDEQLKSGTASVVCLLNNFYPREAKVQWKVDNALQSGNSQESVTEQDSKDSTYSLSSTLTLSKADYEKHKVYACEVTHQGLSSPVTKSFNRGEC	4.7	4.6	4.8	4.7	4.9	4.7
